For experiment [1], the target named is human DLL3 endogenously expressed on SHP77 and NCI-H82 cells (human) (UniProt Q9NYJ7). Briefly: FACS SHP77 cells, 0.00128 nM.
Experiment [2] concerns the target monkey DLL3 on CHO K1-cyno DLL3 cells (cynomolgus monkey DLL3 extracellular segment joined to EpCAM transmembrane and intracellular regions) (cynomolgus monkey). Briefly: FACS, CHO K1-cyno DLL3 cells, 0.0064 nM antibody. In general terms: A flow cytometer gives signals particle by particle.
The target of experiment [3] is human DLL3 endogenously expressed on SHP77 and NCI-H82 cells (human) (UniProt Q9NYJ7). Briefly: FACS SHP77 cells, 100 nM.
Experiment [4] shares this target. Briefly: FACS SHP77 cells, 4 nM.
For experiment [5], the target named is monkey DLL3 on CHO K1-cyno DLL3 cells (cynomolgus monkey DLL3 extracellular segment joined to EpCAM transmembrane and intracellular regions) (cynomolgus monkey). Briefly: FACS, CHO K1-cyno DLL3 cells, 20 nM antibody.
monkey DLL3 on CHO K1-cyno DLL3 cells (cynomolgus monkey DLL3 extracellular segment joined to EpCAM transmembrane and intracellular regions) (cynomolgus monkey), sequence (chain, as listed by the source limits assumed): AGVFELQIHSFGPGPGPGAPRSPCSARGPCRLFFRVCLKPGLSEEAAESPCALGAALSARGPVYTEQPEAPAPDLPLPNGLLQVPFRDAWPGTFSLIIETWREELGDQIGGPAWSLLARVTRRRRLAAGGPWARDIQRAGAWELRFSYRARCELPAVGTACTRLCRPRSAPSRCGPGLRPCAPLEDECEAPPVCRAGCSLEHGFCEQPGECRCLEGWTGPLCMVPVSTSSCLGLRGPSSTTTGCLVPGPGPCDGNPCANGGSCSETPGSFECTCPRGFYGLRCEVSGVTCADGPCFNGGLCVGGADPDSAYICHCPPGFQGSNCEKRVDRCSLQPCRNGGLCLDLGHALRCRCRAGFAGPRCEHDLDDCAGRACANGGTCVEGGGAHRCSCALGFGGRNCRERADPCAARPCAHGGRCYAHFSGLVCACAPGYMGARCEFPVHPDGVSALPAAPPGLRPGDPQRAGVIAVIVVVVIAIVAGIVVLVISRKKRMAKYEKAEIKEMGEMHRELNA
In experiment [6] the target is human DLL3 endogenously expressed on SHP77 and NCI-H82 cells (human) (UniProt Q9NYJ7). Briefly: FACS SHP77 cells, 0.0064 nM.
The target is the same in experiment [7]. Briefly: FACS SHP77 cells, 0.16 nM.
The target is the same in experiment [8]. Briefly: FACS SHP77 cells, 0.032 nM.
The target is the same in experiment [9]. Briefly: FACS SHP77 cells, 0.8 nM.
Experiment [10] has as its target monkey DLL3 on CHO K1-cyno DLL3 cells (cynomolgus monkey DLL3 extracellular segment joined to EpCAM transmembrane and intracellular regions) (cynomolgus monkey). Briefly: FACS, CHO K1-cyno DLL3 cells, 0.16 nM antibody.
The target is the same in experiment [11]. Briefly: FACS, CHO K1-cyno DLL3 cells, 0.032 nM antibody.
For experiment [12] the target is unchanged. Briefly: FACS, CHO K1-cyno DLL3 cells, 4 nM antibody.
For experiment [13] the target is unchanged. Briefly: FACS, CHO K1-cyno DLL3 cells, 100 nM antibody.
The target is the same in experiment [14]. Briefly: FACS, CHO K1-cyno DLL3 cells, 0.8 nM antibody.
For experiment [15], the target named is human DLL3 endogenously expressed on SHP77 and NCI-H82 cells (human) (UniProt Q9NYJ7). Briefly: FACS SHP77 cells, 20 nM.
In experiment [16] the target is human DLL1 protein (human) (UniProt O00548). Briefly: ELISA, maximum over 0.1-100 nM. (ELISA stands for enzyme-linked immunosorbent assay.)
human DLL1 protein (human), sequence (O00548 18-540 limits assumed): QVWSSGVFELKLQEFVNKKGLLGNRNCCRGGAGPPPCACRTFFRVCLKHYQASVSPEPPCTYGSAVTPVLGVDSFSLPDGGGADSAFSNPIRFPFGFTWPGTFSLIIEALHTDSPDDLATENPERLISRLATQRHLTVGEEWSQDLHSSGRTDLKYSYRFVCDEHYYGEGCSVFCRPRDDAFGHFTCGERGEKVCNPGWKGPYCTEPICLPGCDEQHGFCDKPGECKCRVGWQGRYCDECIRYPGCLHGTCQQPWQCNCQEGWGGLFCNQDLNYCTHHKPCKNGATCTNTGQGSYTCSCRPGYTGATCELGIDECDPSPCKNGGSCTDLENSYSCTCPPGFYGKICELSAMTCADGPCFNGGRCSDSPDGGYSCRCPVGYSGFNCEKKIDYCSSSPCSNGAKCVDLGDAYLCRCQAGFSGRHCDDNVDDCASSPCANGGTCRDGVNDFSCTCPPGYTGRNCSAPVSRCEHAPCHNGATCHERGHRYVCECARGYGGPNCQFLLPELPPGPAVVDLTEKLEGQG
For experiment [17], the target named is human DLL4 protein (human) (UniProt Q9NR61). Briefly: ELISA, maximum over 0.1-100 nM.
human DLL4 protein (human), sequence (Q9NR61 27-524 limits assumed): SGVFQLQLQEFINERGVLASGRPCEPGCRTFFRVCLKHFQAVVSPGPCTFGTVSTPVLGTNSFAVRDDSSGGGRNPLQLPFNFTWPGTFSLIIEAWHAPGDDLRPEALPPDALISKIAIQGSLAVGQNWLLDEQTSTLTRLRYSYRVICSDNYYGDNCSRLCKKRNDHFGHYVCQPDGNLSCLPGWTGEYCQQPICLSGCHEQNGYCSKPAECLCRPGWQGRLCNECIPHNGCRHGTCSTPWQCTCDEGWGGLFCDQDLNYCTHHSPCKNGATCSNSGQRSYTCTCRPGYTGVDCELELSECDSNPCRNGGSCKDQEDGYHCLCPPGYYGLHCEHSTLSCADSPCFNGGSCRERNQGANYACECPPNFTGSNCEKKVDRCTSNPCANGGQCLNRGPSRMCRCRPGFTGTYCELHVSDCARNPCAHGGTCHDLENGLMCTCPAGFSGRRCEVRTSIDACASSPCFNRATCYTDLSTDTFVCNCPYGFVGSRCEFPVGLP
Experiment [18] addresses monkey DLL3 on CHO K1-cyno DLL3 cells (cynomolgus monkey DLL3 extracellular segment joined to EpCAM transmembrane and intracellular regions) (cynomolgus monkey). Briefly: FACS, CHO K1-cyno DLL3 cells, 0.00128 nM antibody.

Where “and” joins values, the source holds several entries; their conditions need not be identical. Identical values can stand only once.

human DLL3 endogenously expressed on SHP77 and NCI-H82 cells (human), sequence (Q9NYJ7 27-618): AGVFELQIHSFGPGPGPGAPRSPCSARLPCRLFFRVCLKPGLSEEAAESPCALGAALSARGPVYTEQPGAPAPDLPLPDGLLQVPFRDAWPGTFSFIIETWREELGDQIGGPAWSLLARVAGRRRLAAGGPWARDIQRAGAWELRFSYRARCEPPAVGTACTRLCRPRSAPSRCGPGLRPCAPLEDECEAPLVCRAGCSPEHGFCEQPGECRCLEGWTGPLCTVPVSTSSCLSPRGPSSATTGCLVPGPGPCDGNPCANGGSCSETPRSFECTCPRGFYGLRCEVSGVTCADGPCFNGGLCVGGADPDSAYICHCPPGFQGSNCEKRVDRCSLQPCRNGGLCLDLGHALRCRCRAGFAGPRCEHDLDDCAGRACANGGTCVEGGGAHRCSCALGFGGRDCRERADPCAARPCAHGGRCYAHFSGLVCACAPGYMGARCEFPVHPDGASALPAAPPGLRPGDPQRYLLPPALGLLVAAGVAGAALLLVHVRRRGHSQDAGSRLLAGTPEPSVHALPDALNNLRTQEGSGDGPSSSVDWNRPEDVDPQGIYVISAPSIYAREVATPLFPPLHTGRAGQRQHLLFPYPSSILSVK

Turning to SC16.56 (antibody), the MFI in [1] is 188 MFI and 146 MFI; in experiment [2] it was 314 MFI and 189 MFI; in [3], 529 MFI and 628 MFI; in experiment [4], 476 MFI and 517 MFI; in [5], 5010 MFI and 2630 MFI; in experiment [6] it was 235 MFI and 146 MFI. Moreover, the MFI was 432 MFI and 411 MFI in experiment [7]; 334 MFI and 234 MFI in [8]; 465 MFI and 478 MFI in experiment [9]; 1970 MFI and 700 MFI in experiment [10]; 690 MFI and 299 MFI in experiment [11]; 5040 MFI and 2330 MFI in experiment [12]. In addition, the MFI was 4930 MFI and 2330 MFI in experiment [13]; 4510 MFI and 1900 MFI in [14]; 500 MFI and 566 MFI in [15]; 161 MFI and 185 MFI in [18]. For the same substance, the Emax of OD450 nm binding value in [16] and in experiment [17] was 0.05 OD450 throughout.
As to hIgG1 (antibody), the Emax of OD450 nm binding value in [16] is 0.04 OD450 and 0.05 OD450 and 0.07 OD450; in experiment [17], 0.04 OD450 and 0.07 OD450 and 0.05 OD450.

The values above are taken from patent EP4786492A1.
